In patent publication US6855515 (MERCK, dated 2005):

T1: caspase-1 (UniProt P29466 120-297; P29466 317-404, limits assumed)
T1 sequence (looked up) 1: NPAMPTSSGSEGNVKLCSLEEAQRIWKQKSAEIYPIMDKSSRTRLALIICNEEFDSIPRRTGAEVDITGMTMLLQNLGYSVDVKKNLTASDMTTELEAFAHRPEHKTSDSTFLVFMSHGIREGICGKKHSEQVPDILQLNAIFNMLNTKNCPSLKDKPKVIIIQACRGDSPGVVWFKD
T1 sequence (looked up) 2: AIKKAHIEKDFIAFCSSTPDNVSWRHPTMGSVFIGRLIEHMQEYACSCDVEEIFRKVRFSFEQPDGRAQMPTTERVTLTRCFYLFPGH

T2: caspase-7 (UniProt P55210 24-198; P55210 207-303, limits assumed)
T2 sequence (looked up) 1: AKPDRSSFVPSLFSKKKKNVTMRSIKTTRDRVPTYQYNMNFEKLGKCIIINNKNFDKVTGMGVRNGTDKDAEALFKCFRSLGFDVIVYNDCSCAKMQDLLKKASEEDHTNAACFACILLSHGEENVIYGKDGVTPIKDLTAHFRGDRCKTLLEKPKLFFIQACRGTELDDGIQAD
T2 sequence (looked up) 2: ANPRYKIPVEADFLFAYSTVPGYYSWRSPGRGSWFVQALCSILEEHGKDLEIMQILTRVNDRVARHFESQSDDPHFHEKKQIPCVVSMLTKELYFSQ

T3: caspase-10 (UniProt Q92851 220-521, limits assumed)
T3 sequence (looked up): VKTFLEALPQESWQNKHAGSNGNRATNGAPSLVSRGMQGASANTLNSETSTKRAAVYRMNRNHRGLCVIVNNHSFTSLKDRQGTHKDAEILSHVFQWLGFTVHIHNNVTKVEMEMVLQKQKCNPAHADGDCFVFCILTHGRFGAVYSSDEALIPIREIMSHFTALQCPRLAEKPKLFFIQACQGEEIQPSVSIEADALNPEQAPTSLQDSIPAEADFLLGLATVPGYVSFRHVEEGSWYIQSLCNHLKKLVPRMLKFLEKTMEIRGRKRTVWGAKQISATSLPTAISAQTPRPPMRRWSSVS


Experiments:
Assay in all cases: Ki printed in running text; no assay described
[1] = target: T1, caspase-1
[2] = target: T2, caspase-7
[3] = target: T4, caspase-8 (UniProt Q14790 217-374; Q14790 385-479, limits assumed)
T4 construct: also called purified caspase-8

[4] = target: T3, caspase-10

T4 sequence (Q14790 217-374 limits assumed, form in doubt, chain 1 of 2): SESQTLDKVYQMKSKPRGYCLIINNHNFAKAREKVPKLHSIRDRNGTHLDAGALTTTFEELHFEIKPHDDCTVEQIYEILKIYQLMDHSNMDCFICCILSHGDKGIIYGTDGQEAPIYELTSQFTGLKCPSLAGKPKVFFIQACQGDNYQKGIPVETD
T4 sequence (Q14790 385-479 limits assumed, form in doubt, chain 2 of 2): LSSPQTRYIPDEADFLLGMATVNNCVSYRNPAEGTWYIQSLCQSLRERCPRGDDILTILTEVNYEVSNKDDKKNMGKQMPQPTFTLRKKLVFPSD

| Ki [1] [nM] | Ki [2] [nM] | Ki [3] [nM] | Ki [4] [nM] | Binder |
| --- | --- | --- | --- | --- |
| 17 | 1 | 0.92 | 12 | Ac-DEVD-aldehyde [Ac-DEVD-CHO, N-(N-Ac-Asp-Glu-Val)-3-amino-4-oxobutanoic acid] |
| 0.6 |  |  | 408 | Ac-YVAD-aldehyde [Ac-YVAD-CHO, N-(N-Ac-Tyr-Val-Ala)-3-amino-4-oxobutanoic acid] |
